Data reported in patent US20240124585A1 (SUTRO BIOPHARMA, published 2024).
Like-named read-outs stand apart in the source and are kept apart here.

T1: cynomolgus CD3 epsilon (cynomolgus monkey, UniProt Q95LI5 22-117, limits assumed)
T1 construct: Recombinant protein; also called cyno CD3E
T1 sequence: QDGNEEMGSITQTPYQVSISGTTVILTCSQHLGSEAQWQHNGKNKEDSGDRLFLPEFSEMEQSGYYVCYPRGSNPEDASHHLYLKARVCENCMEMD


Key:
[1] = molecular target: T2, human CD3 on T-cell lines (CD3-expressing Jurkat cells; HUT78 cells) (human, UniProt P07766 23-207); experiment: flow cytometry, HUT78 cells
T2 construct: On cells it stands in the CD3/TCR complex

cynomolgus CD3 epsilon [2] = molecular target: T1, cynomolgus CD3 epsilon; experiment: SPR (Biacore), antibody captured, cynomolgus CD3 epsilon analyte
[3] = molecular target: T2, human CD3 on T-cell lines …; experiment: flow cytometry, HUT78 cells; remark: listed apart in the source
cynomolgus CD3 epsilon [4] = molecular target: T1, cynomolgus CD3 epsilon; experiment: SPR (Biacore), antibody captured, cynomolgus CD3 epsilon analyte; remark: listed apart in the source
[5] = molecular target: T3, human CD3 epsilon (Acro Cat #CDE-H5223) (human, UniProt P07766 23-126); experiment: SPR (Biacore), antibody captured, human CD3 epsilon analyte
T3 construct: Bought recombinant protein; also called rhCD3E
Experimental: (§1) Anti-Fab or anti-Fc polyclonal antibodies were immobilized onto a CM5 chip (GE Life Sciences) using amine coupling chemistry (from Amine Coupling Kit, GE Life Sciences). The immobilization steps were carried out at a flow rate of 25 μl/min in 1×HBS-EP+ buffer (GE Life Sciences; 10× Stock diluted before use). The sensor surfaces were activated for 7 min with a mixture of NHS (0.05 M) and EDC (0.2 M). The Anti-Fab or Anti-Fc antibodies were injected over all 4 flow cells at a concentration of 25 μg/mL in 10 mM sodium acetate, pH 4.5, for 7 min. Ethanolamine (1 M, pH 8.5) was injected for 7 min to block any remaining activated groups.
(§2) Off-rate and kinetic binding experiments were performed at 25° C. using 1×HBS-EP+ buffer. Test and control antibodies were injected over the anti-Fab or anti-Fc surface at concentrations of 5-10 μg/mL for 12 seconds at a flow rate of 10 μL/min on flow cells 2, 3 and 4, followed by a buffer wash for 30 seconds at the same flow rate. […] After capturing ligand (antibody) on the anti-Fc or anti-Fab surface, the analyte (human CD3 epsilon, Acro Cat #CDE-H5223) was bound for 180 seconds, followed by a 600 second dissociation phase at a flow rate of 50 μL/min. Between each ligand capture and analyte binding cycle, regeneration was carried out using two injections of 10 mM Glycine pH 2.0 for 30 seconds at 30 μL/min, followed by a 30 second buffer wash step.
(§3) The data was fit with the Biacore T200 Evaluation software, using a 1-1 Langmuir binding model. KD (affinity, nM) was determined as a ratio of the kinetic rate constants calculated from the fits of the association and dissociation phases.

[6] = molecular target: T3, human CD3 epsilon (Acro Cat #CDE-H5223); experiment: as above; remark: listed apart in the source
Experimental: as §1, §2, §3

[7] = molecular target: T2, human CD3 on T-cell lines …; experiment: flow cytometry, HUT78 cells; remark: listed apart in the source
[8] = molecular target: T3, human CD3 epsilon (Acro Cat #CDE-H5223); experiment: SPR (Biacore), antibody captured, human CD3 epsilon analyte; remark: listed apart in the source
Experimental: as §1, §2, §3

T2 sequence (P07766 23-207 limits assumed): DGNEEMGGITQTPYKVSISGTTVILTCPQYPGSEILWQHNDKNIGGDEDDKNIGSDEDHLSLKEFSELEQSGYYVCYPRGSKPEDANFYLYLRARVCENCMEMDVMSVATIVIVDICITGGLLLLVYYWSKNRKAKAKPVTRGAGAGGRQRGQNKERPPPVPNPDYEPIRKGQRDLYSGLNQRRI
T3 sequence (P07766 23-126 limits assumed): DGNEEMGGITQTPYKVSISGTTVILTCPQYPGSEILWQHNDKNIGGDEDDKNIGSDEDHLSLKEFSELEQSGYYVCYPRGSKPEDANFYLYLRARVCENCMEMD

Row | Binder | Bmax (MFI) [1] | Kd [1] | Kd (cynomolgus CD3 epsilon [4]) | koff (cynomolgus CD3 epsilon [4]) | kon (cynomolgus CD3 epsilon [4]) | Kd [6] | koff [6] | kon [6] | binding result (cynomolgus CD3 epsilon [4]) | binding result [6] | also measured
1 | 2037-B10-Lc6 (antibody, human IgG1, kappa; also called Kappa Lc6; Parent HC + Kappa Lc6) heavy: not shown light: DIQMTQSPSSLSASVGDRVTITCGSSTGAVTSGYYPNWLQQKPGQAPRGLIGGTKFLAPGVPSRFSGSLSGGKATLTISSLQPEDFATYYCALWYSNRWVFGGGTKVEIKRTVAAPSVFIFPPSDEQLKSGTASVVCLLNNFYPREAKVQWKVDNALQSGNSQESVTEQDSKDSTYSLSSTLTLSKADYEKHKVYACEVTHQGLSSPVTKSFNRGEC | 1320 MFI | 0.8 nM | 0.413 nM | 0.000311 s⁻¹ | 753000 M⁻¹ s⁻¹ | 0.648 nM | 0.000278 s⁻¹ | 430000 M⁻¹ s⁻¹ | – | – | Kd (cynomolgus CD3 epsilon [2]): 0.56 nM; koff (cynomolgus CD3 epsilon [2]): 0.000375 s⁻¹; kon (cynomolgus CD3 epsilon [2]): 670000 M⁻¹ s⁻¹; HUT78 Bmax [3]: 1780; Kd [3]: 1.6 nM; Kd [5]: 1.96 nM; koff [5]: 0.000479 s⁻¹; kon [5]: 244000 M⁻¹ s⁻¹
2 | 2037-B10-Lc3 (antibody, human IgG1, kappa; also called Kappa Lc3) heavy: not shown light: DIQMTQSPSSLSASVGDRVTITCGSSTGAVTSGYYPNWLQQKPGQAPRGLIGGTKFLAPGVPSRFSGSGSGTDFTLTISSLQPEDFATYYCALWYSNRWVFGGGTKVEIKRTVAAPSVFIFPPSDEQLKSGTASVVCLLNNFYPREAKVQWKVDNALQSGNSQESVTEQDSKDSTYSLSSTLTLSKADYEKHKVYACEVTHQGLSSPVTKSFNRGEC | 1040 MFI | 62.6 nM | 13.6 nM | 0.00069 s⁻¹ | 50600 M⁻¹ s⁻¹ | 7.15 nM | 0.000393 s⁻¹ | 55000 M⁻¹ s⁻¹ | – | – | –
3 | 2037-B10-Lc4 (antibody, human IgG1, kappa; also called Kappa Lc4) heavy: not shown light: DIQMTQSPSSLSASVGDRVTITCGSSTGAVTSGYYPNWYQQKPGKAPKLLIGGTKFLAPGVPSRFSGSLSGGKATLTISSLQPEDFATYYCALWYSNRWVFGGGTKVEIKRTVAAPSVFIFPPSDEQLKSGTASVVCLLNNFYPREAKVQWKVDNALQSGNSQESVTEQDSKDSTYSLSSTLTLSKADYEKHKVYACEVTHQGLSSPVTKSFNRGEC | 130 MFI | 30.4 nM | – | – | – | – | – | – | no binding | no binding | –
4 | 2037-B10-Lc1 (antibody, human IgG1, kappa; also called Kappa Lc1) heavy: not shown light: DIQMTQSPSSLSASVGDRVTITCGSSTGAVTSGYYPNWYQQKPGKAPKLLIGGTKFLAPGVPSRFSGSGSGTDFTLTISSLQPEDFATYYCALWYSNRWVFGGGTKVEIKRTVAAPSVFIFPPSDEQLKSGTASVVCLLNNFYPREAKVQWKVDNALQSGNSQESVTEQDSKDSTYSLSSTLTLSKADYEKHKVYACEVTHQGLSSPVTKSFNRGEC | 514 MFI | 222 nM | – | – | – | – | – | – | no binding | no binding | –
5 | SRP2037-B10 (antibody, V domains shown, human IgG1, lambda; also called 2037-B10 WT; 2037-B10 wt LC (lambda)) VH: not shown VL: QTVVTQEPSLTVSPGGTVTLTCGSSTGAVTSGYYPNWLQQKPGQAPRGLIGGTKFLAPGTPARFSGSLLGGKAALTLSGVQPEDEAEYYCALWYSNRWVFGGGTQLTVTG | 1030 MFI | 0.4 nM | 0.416 nM | 0.000368 s⁻¹ | 884000 M⁻¹ s⁻¹ | 0.596 nM | 0.000306 s⁻¹ | 514000 M⁻¹ s⁻¹ | – | – | Kd (cynomolgus CD3 epsilon [2]): 0.418 nM; koff (cynomolgus CD3 epsilon [2]): 0.000344 s⁻¹; kon (cynomolgus CD3 epsilon [2]): 824000 M⁻¹ s⁻¹; Bmax (MFI) [7]: 1040 MFI; Kd [7]: 0.15 nM; HUT78 Bmax [3]: 1890; Kd [3]: 2.33 nM; Kd [5]: 2.2 nM; koff [5]: 0.000564 s⁻¹; kon [5]: 256000 M⁻¹ s⁻¹; Kd [8]: 0.465 nM; koff [8]: 0.000222 s⁻¹; kon [8]: 478000 M⁻¹ s⁻¹
6 | 2037-B10-Lc8 (antibody, human IgG1, kappa; also called Kappa Lc8) heavy: not shown light: DTQVTQSPSLSASVGDRVTITCGSSTGAVTSGYYPNWLQQKPGQAPRGLIGGTKFLAPGVPSRFSGSLSGGKATLTISSLQPEDFATYYCALWYSNRWVFGGGTKVEIKRTVAAPSVFIFPPSDEQLKSGTASVVCLLNNFYPREAKVQWKVDNALQSGNSQESVTEQDSKDSTYSLSSTLTLSKADYEKHKVYACEVTHQGLSSPVTKSFNRGEC | 1250 MFI | 0.3 nM | 0.338 nM | 0.000311 s⁻¹ | 920000 M⁻¹ s⁻¹ | 0.493 nM | 0.000267 s⁻¹ | 541000 M⁻¹ s⁻¹ | – | – | –
7 | 2037-B10-Lc5 (antibody, human IgG1, kappa; also called Kappa Lc5; Parent HC + Kappa Lc5) heavy: not shown light: DTQVTQSPSLSASVGDRVTITCGSSTGAVTSGYYPNWLQQKPGQAPRGLIGGTKFLAPGVPSRFSGSGSGTDFTLTISSLQPEDFATYYCALWYSNRWVFGGGTKVEIKRTVAAPSVFIFPPSDEQLKSGTASVVCLLNNFYPREAKVQWKVDNALQSGNSQESVTEQDSKDSTYSLSSTLTLSKADYEKHKVYACEVTHQGLSSPVTKSFNRGEC | 1200 MFI | 40.7 nM | 8.28 nM | 0.000478 s⁻¹ | 57700 M⁻¹ s⁻¹ | 12.2 nM | 0.000464 s⁻¹ | 38200 M⁻¹ s⁻¹ | – | – | HUT78 Bmax [3]: 1850; Kd [3]: 47 nM
8 | 2037-B10-Lc7 (antibody, human IgG1, kappa; also called Kappa Lc7) heavy: not shown light: DTQVTQSPSLSASVGDRVTITCGSSTGAVTSGYYPNWYQQKPGKAPKLLIGGTKFLAPGVPSRFSGSLSGGKATLTISSLQPEDFATYYCALWYSNRWVFGGGTKVEIKRTVAAPSVFIFPPSDEQLKSGTASVVCLLNNFYPREAKVQWKVDNALQSGNSQESVTEQDSKDSTYSLSSTLTLSKADYEKHKVYACEVTHQGLSSPVTKSFNRGEC | 737 MFI | 338 nM | – | – | – | – | – | – | no binding | no binding | –
9 | 2037-B10-Lc10 (antibody, V domains shown, human IgG1, kappa; also called Kappa Lc10) VH: not shown VL: DTQVTQSPSLSASVGDRVTITCGSSTGAVTSGYYPNWLQQKPGQAPRGLIGGTKFLAPGVPSRFSGSLLGGKAALTISSLQPEDFAEYYCALWYSNRWVFGGGTKVEIKR | 1240 MFI | 0.6 nM | 0.371 nM | 0.000404 s⁻¹ | 1.09e+06 M⁻¹ s⁻¹ | 0.464 nM | 0.000314 s⁻¹ | 677000 M⁻¹ s⁻¹ | – | – | –
10 | 2037-B10-Lc9 (antibody, V domains shown, human IgG1, kappa; also called Kappa Lc9) VH: not shown VL: DTQVTQSPSLSASVGDRVTITCGSSTGAVTSGYYPNWLQQKPGQAPRGLIGGTKFLAPGVPSRFSGSLLGGKAALTISSLQPEDFATYYCALWYSNRWVFGGGTKVEIKR | 1230 MFI | 0.4 nM | 0.329 nM | 0.00034 s⁻¹ | 1.03e+06 M⁻¹ s⁻¹ | 0.511 nM | 0.000297 s⁻¹ | 580000 M⁻¹ s⁻¹ | – | – | –
11 | 2037-B10-Lc2 (antibody, human IgG1, kappa; also called Kappa Lc2) heavy: not shown light: DTQVTQSPSLSASVGDRVTITCGSSTGAVTSGYYPNWYQQKPGKAPKLLIGGTKFLAPGVPSRFSGSGSGTDFTLTISSLQPEDFATYYCALWYSNRWVFGGGTKVEIKRTVAAPSVFIFPPSDEQLKSGTASVVCLLNNFYPREAKVQWKVDNALQSGNSQESVTEQDSKDSTYSLSSTLTLSKADYEKHKVYACEVTHQGLSSPVTKSFNRGEC | 63 MFI | 24 nM | – | – | – | – | – | – | no binding | no binding | –
